Data published in PMC10138680, “Identification and Functional Analysis of Tartrate-Resistant Acid Phosphatase Type 5b (TRAP5b) in Oreochromis niloticus” (International Journal of Molecular Sciences, 2023).

System: T1, O=[N+]([O-])c1ccc(OP(=O)(O)O)cc1
T1 construct: mature peptide of 302 residues (22-residue signal peptide removed; precursor 324 aa), N-terminal MBP tag (pMAL-c5X) kept, E. coli K12 TB1, amylose resin; forward primer F2 encodes MVEQGA
Experiment: purified protein
Format: biochemical, Oreochromis niloticus
Conditions: substrate 5-25 mM, pH and temperature of the kinetic runs not stated (50 mM acetate; optimum pH 5.0, 50 °C; standard assay 37 °C)

Sequence of (r)OnTRAP5b (Oreochromis niloticus) (chain, as listed by the source): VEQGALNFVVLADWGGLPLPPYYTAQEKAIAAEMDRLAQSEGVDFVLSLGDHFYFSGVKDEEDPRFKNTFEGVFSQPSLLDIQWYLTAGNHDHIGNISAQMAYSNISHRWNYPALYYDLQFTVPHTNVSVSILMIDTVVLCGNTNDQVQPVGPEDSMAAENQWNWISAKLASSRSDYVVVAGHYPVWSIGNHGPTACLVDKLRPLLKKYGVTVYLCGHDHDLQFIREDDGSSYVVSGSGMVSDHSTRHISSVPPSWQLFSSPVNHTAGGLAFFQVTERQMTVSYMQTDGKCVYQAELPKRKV

With (r)OnTRAP5b (Oreochromis niloticus) the Km was 2112 µM and the kcat was 0.27 s⁻¹.
